Consider 38 variants from the Human Domainome abundance scans (Beltran et al. 2025).

To fix the notation:
B1: POU domain, class 2, transcription factor 2, residues 200 to 269; numbered along this chain, P09086 (parent)
chain: LEELEQFARTFKQRRIKLGFTQGDVGLAMGKLYGNDFSQTTISRFEALNLSFKNMCKLKPLLEKWLNDAE

± gives the uncertainty stated by the source.

In the data set the parent is B1. The data set can be described thus: abundance fitness (aPCA) (normalised: wild type 0, dead -1); higher = more abundant; growth selection in yeast, the domain comes from the species named. The settings on record: Homo sapiens.
Take LEELEQFARTFKQRRIKLGFTQGDVGLAMGKLYGNDFSQTTISRFEALNLSFKNMCKSKPLLEKWLNDAE: the abundance fitness was -0.228 ± 0.054.

As to LEELEQFARTFKQRRIKLGFTQGDVGLAMGKLYGNDFSQTTISRFEALNLSFKNMCKQKPLLEKWLNDAE, the abundance fitness is -0.194 ± 0.08.

For LEELEQFARTFKQRRIKLGFTQGDVGLAMGKLYGNDFSQTTISRFEALNLSFKNMCKMKPLLEKWLNDAE, the abundance fitness was -0.011 ± 0.067.

As to LEELEQFARTFKQRRIKLGFTQGDVGLAMGKLYGNDFSQTTISRFEALNLSFKNMCKVKPLLEKWLNDAE, the abundance fitness is -0.005 ± 0.037.

On to LEELEQFARTFKQRRIKLGFTQGDVGLAMGKLYGNDFSQTTISRFEALNLSFKNMCKPKPLLEKWLNDAE, for which the abundance fitness is -0.747 ± 0.12.

LEELEQFARTFKQRRIKLGFTQGDVGLAMGKLYGNDFSQTTISRFEALNLSFKNMCKNKPLLEKWLNDAE: the abundance fitness was -0.227 ± 0.11.

Turning to LEELEQFARTFKQRRIKLGFTQGDVGLAMGKLYGNDFSQTTISRFEALNLSFKNMCKTKPLLEKWLNDAE, the abundance fitness was -0.049 ± 0.061.

For LEELEQFARTFKQRRIKLGFTQGDVGLAMGKLYGNDFSQTTISRFEALNLSFKNMCKRKPLLEKWLNDAE, the abundance fitness was -0.259 ± 0.03.

In the case of LEELEQFARTFKQRRIKLGFTQGDVGLAMGKLYGNDFSQTTISRFEALNLSFKNMCKYKPLLEKWLNDAE, the abundance fitness was -0.157 ± 0.06.

Turning to LEELEQFARTFKQRRIKLGFTQGDVGLAMGKLYGNDFSQTTISRFEALNLSFKNMCKIKPLLEKWLNDAE, the abundance fitness was 0.057 ± 0.11.

Take LEELEQFARTFKQRRIKLGFTQGDVGLAMGKLYGNDFSQTTISRFEALNLSFKNMCKHKPLLEKWLNDAE: the abundance fitness is -0.221 ± 0.11.

Consider LEELEQFARTFKQRRIKLGFTQGDVGLAMGKLYGNDFSQTTISRFEALNLSFKNMCKKKPLLEKWLNDAE, for which the abundance fitness is -0.099 ± 0.06.

As for LEELEQFARTFKQRRIKLGFTQGDVGLAMGKLYGNDFSQTTISRFEALNLSFKNMCKWKPLLEKWLNDAE, the abundance fitness was -0.007 ± 0.038.

In the case of LEELEQFARTFKQRRIKLGFTQGDVGLAMGKLYGNDFSQTTISRFEALNLSFKNMCKLKDLLEKWLNDAE, the abundance fitness was -0.082 ± 0.077.

Take LEELEQFARTFKQRRIKLGFTQGDVGLAMGKLYGNDFSQTTISRFEALNLSFKNMCKLKQLLEKWLNDAE: the abundance fitness was -0.103 ± 0.059.

Regarding LEELEQFARTFKQRRIKLGFTQGDVGLAMGKLYGNDFSQTTISRFEALNLSFKNMCKLKMLLEKWLNDAE, the abundance fitness was -0.207 ± 0.076.

On to LEELEQFARTFKQRRIKLGFTQGDVGLAMGKLYGNDFSQTTISRFEALNLSFKNMCKLKHLLEKWLNDAE, for which the abundance fitness was -0.216 ± 0.14.

Take LEELEQFARTFKQRRIKLGFTQGDVGLAMGKLYGNDFSQTTISRFEALNLSFKNMCKLKLLLEKWLNDAE: the abundance fitness was -0.156 ± 0.036.

As to LEELEQFARTFKQRRIKLGFTQGDVGLAMGKLYGNDFSQTTISRFEALNLSFKNMCKLKNLLEKWLNDAE, the abundance fitness was -0.177 ± 0.1.

Regarding LEELEQFARTFKQRRIKLGFTQGDVGLAMGKLYGNDFSQTTISRFEALNLSFKNMCKLKELLEKWLNDAE, the abundance fitness is -0.109 ± 0.048.

On to LEELEQFARTFKQRRIKLGFTQGDVGLAMGKLYGNDFSQTTISRFEALNLSFKNMCKLKVLLEKWLNDAE, for which the abundance fitness is -0.035 ± 0.036.

Regarding LEELEQFARTFKQRRIKLGFTQGDVGLAMGKLYGNDFSQTTISRFEALNLSFKNMCKLKCLLEKWLNDAE, the abundance fitness was -0.177 ± 0.059.

Take LEELEQFARTFKQRRIKLGFTQGDVGLAMGKLYGNDFSQTTISRFEALNLSFKNMCKLKRLLEKWLNDAE: the abundance fitness was -0.102 ± 0.035.

As to LEELEQFARTFKQRRIKLGFTQGDVGLAMGKLYGNDFSQTTISRFEALNLSFKNMCKLKWLLEKWLNDAE, the abundance fitness was -0.334 ± 0.065.

Turning to LEELEQFARTFKQRRIKLGFTQGDVGLAMGKLYGNDFSQTTISRFEALNLSFKNMCKLKYLLEKWLNDAE, the abundance fitness was -0.378 ± 0.082.

On to LEELEQFARTFKQRRIKLGFTQGDVGLAMGKLYGNDFSQTTISRFEALNLSFKNMCKLKGLLEKWLNDAE, for which the abundance fitness is -0.016 ± 0.044.

On to LEELEQFARTFKQRRIKLGFTQGDVGLAMGKLYGNDFSQTTISRFEALNLSFKNMCKLKKLLEKWLNDAE, for which the abundance fitness is -0.295 ± 0.13.

Consider LEELEQFARTFKQRRIKLGFTQGDVGLAMGKLYGNDFSQTTISRFEALNLSFKNMCKLKSLLEKWLNDAE, for which the abundance fitness is -0.069 ± 0.057.

Take LEELEQFARTFKQRRIKLGFTQGDVGLAMGKLYGNDFSQTTISRFEALNLSFKNMCKLKTLLEKWLNDAE: the abundance fitness was -0.06 ± 0.052.

Regarding LEELEQFARTFKQRRIKLGFTQGDVGLAMGKLYGNDFSQTTISRFEALNLSFKNMCKLKILLEKWLNDAE, the abundance fitness was 0.098 ± 0.069.

LEELEQFARTFKQRRIKLGFTQGDVGLAMGKLYGNDFSQTTISRFEALNLSFKNMCKLKALLEKWLNDAE: the abundance fitness is -0.124 ± 0.044.

Regarding LEELEQFARTFKQRRIKLGFTQGDVGLAMGKLYGNDFSQTTISRFEALNLSFKNMCKLKFLLEKWLNDAE, the abundance fitness is -0.05 ± 0.079.

For the variant LEELEQFARTFKQRRIKLGFTQGDVGLAMGKLYGNDFSQTTISRFEALNLSFKNMCKLCPLLEKWLNDAE, the abundance fitness was -0.14 ± 0.066.

LEELEQFARTFKQRRIKLGFTQGDVGLAMGKLYGNDFSQTTISRFEALNLSFKNMCKLAPLLEKWLNDAE: the abundance fitness is -0.086 ± 0.054.

As to LEELEQFARTFKQRRIKLGFTQGDVGLAMGKLYGNDFSQTTISRFEALNLSFKNMCKLEPLLEKWLNDAE, the abundance fitness was -0.293 ± 0.047.

For the variant LEELEQFARTFKQRRIKLGFTQGDVGLAMGKLYGNDFSQTTISRFEALNLSFKNMCKLNPLLEKWLNDAE, the abundance fitness is -0.435 ± 0.11.

Turning to LEELEQFARTFKQRRIKLGFTQGDVGLAMGKLYGNDFSQTTISRFEALNLSFKNMCKLFPLLEKWLNDAE, the abundance fitness is -0.14 ± 0.094.

On to LEELEQFARTFKQRRIKLGFTQGDVGLAMGKLYGNDFSQTTISRFEALNLSFKNMCKLLPLLEKWLNDAE, for which the abundance fitness is -0.069 ± 0.035.
